Consider two molecules from patent US12508311B2, “Fusion protein, and preparation method and use thereof” (SUN YAT-SEN UNIVERSITY, priority 2021, dated 2025).

No end group written: not given here.

For data set [1], the system named is normal human intestinal epithelial cells FHC. Kind of data set: Effect of gefitinib on normal cells (FHC control in CCK-8 / clone formation). As to conditions: gefitinib 4 μM. The class given is cell-based. The text has this:
• (1) The colorectal cancer cells HT29 (KRas wt) and HCT116 (KRas G13D) in the logarithmic growth phase and the normal human intestinal epithelial cells FHC were digested with pancreatin and then prepared into a single cell suspension, and the cells were evenly inoculated in a 12-well plate by 500 cells per well. […] Cell culture solution was replaced every other 1-2 days, and the culture was stopped until cell clones (more than 50 cells were considered as one clone) were seen under a light microscope. • (3) After the supernatant of each group was discarded, the cells were washed twice with the PBS buffer solution, and dried in air. A proper amount of methanol stationary liquid was added into each well for cell fixation for 15 minutes, and residual stationary liquid in the well was washed off with PBS solution, and dried in air. A proper amount of crystal violet staining solution was added into each well for cell staining for 15 minutes, and residual staining solution in the well was washed off with PBS solution, and dried in air. The cell clones seen in the auxiliary wells of each group were counted under an inverted microscope and the number of the clones was calculated. • (4) Statistical analysis was carried out by using GraphPad Prism8 software, and one way anova was used to compare means of multiple groups. The difference was statistically significant when P<0.05.

Data set [2] has as its system tumors derived from the KRas wild-type cells HT29. Kind of data set: In vivo Cy5 imaging of tumor targeting, HT29 tumors. Details: species or system mice. The following applies: tail vein 60 μM, 100 μL, 2.5 hours, compared with Cy5 single molecule. From the text:
(§1) • (1) 10 female Balb/c nude mice aged 4 weeks to 5 weeks (Guangdong Laboratory Animal Center) were purchased, and then 500,000 HT29cells and 500,000 HCT116 cells were subcutaneously injected into left and right sides of the mice respectively. One week later, the mice were divided into two groups, with five mice in each group, which were the experimental group and the control group respectively. Raising and experiment of the mice were both carried out in the Laboratory Animal Center of Sun Yat-sen University, and all the operations were in accordance with the management method of laboratory animals of Sun Yat-sen University and complied with the animal ethical rules. • (2) The TKD-Cy5 molecule and the Cy5 single molecule constructed above were injected into the mice by tail vein at a concentration of 60 μM and a volume of 100 μL, wherein the TKD-Cy5 injection group was the experimental group and the Cy5 single molecule injection group was the control group. • (3) After 2.5 hours of tail vein injection, the mice were anesthetized with isoflurane. Cy5 imaging detection was conducted by using IVIS Lumina (PerkinElmer), with a fluorescence detection form of fluorescence. • (4) Experimental results were shown in FIG. 15.

The nature of data set [3]: In vivo Cy5 imaging, other tissues and organs. Further details: species or system mice. As to conditions: tail vein 60 μM, 100 μL; 2.5 hours.
Description: as §1

For data set [4], the system named is tumors derived from the KRas mutant-type HCT116 cells. Kind of data set: In vivo Cy5 imaging of tumor targeting, HCT116 tumors. Details: species or system mice. The following applies: tail vein 60 μM, 100 μL, 2.5 hours, compared with Cy5 single molecule.
Description: as §1

For the molecule `COc1cc2ncnc(Nc3ccc(F)c(Cl)c3)c2cc1OCCCN1CCOCC1` [gefitinib], in data set [1], the “toxic and side effects on normal cells” value was “could not cause toxic and side effects on normal cells”.
For the molecule “TKD-Cy5: TKD molecules labeled with fluorescent dye Cy5 to form TKD-Cy5 covalent conjugates (TKDNNLLGRFELSG; also: Cy5 dye conjugate, site not given here; UniProt P0DMV8 450-463, looked up, fragment)”, the “aggregation in tumors (Cy5 imaging)” value in data set [2] and in data set [4] was “could aggregate in tumors” each time. In addition, the “targeting of other tissues and organs (Cy5 imaging)” value in data set [3] was “except bladder retention caused by metabolism in vivo as in the control group, TKD-Cy5 could not target other tissues and organs of the mice”.
